Measured values taken from the supplement of paper PMC7125110.
± gives the standard error. This sample holds only a part of the variants without activity.

B1: glmS ribozyme (parent)
chain: AUAAAAGCGCCAGAACUACAGAAAUGUAGUUGACGAGGAGGAGGUUUAUCGAAUUUUCGGCGGAUGCCUCCAAA

Experiments:
Conditions in all cases: with glucosamine-6-phosphate
glucosamine-6-phosphate [1] = variants of: B1; experiment: self-cleavage kobs at 640 uM GlcN6P; higher = faster cleavage; RNA array
Method in brief: (§1)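 Glucosamine-6-phosphate (40 μM to 10 mM) in HEPES/KCl/Mg(OAc)2 buffer was flowed over sequenced MiSeq chips, and tiles were imaged over ~14 h. Barcoded ribozyme variants there had been transcribed in situ by E. coli RNA polymerase and were tracked through a hybridised Cy3 probe at 37 °C. One- or two-exponential decay fits to per-tile medians, normalised to baseline and to non-cleaving reference variants, gave kobs. kcat and KM came from weighted Michaelis–Menten fits across concentrations.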

glucosamine-6-phosphate [2] = variants of: B1; experiment: self-cleavage kobs at 10000 uM GlcN6P; higher = faster cleavage; RNA array
Method in brief: as §1

glucosamine-6-phosphate [3] = variants of: B1; experiment: self-cleavage kobs at 2500 uM GlcN6P; higher = faster cleavage; RNA array
Method in brief: as §1

Variant	self-cleavage kobs at 640 uM GlcN6P (glucosamine-6-phosphate [1])	self-cleavage kobs at 10000 uM GlcN6P (glucosamine-6-phosphate [2])	self-cleavage kobs at 2500 uM GlcN6P (glucosamine-6-phosphate [3])
A14C U47C	0.000137 ± 2.2e-05 s⁻¹	0.00052 ± 0.00018 s⁻¹	–
G59U C70G	0.000548 ± 0.00023 s⁻¹	–	–
A42C U54A U65C	< 1e-05 s⁻¹	–	–
G9C C50U C58U	< 1e-05 s⁻¹	–	< 1e-05 s⁻¹
A52C A53U C67U C68U	6.36e-05 ± 3e-05 s⁻¹	–	9.26e-05 ± 4.1e-05 s⁻¹
G59U G62A C70G	5.34e-05 ± 1.5e-05 s⁻¹	–	–
C19U U46A	0.0011 ± 0.00031 s⁻¹	–	0.0021 ± 0.00075 s⁻¹
A36G U49A G63U	< 1e-05 s⁻¹	–	–
A15C C50U G51A G62U U69C	3.56e-05 ± 1.7e-05 s⁻¹	–	–
A12C G32U A64G C70U	< 1e-05 s⁻¹	–	–
G44A C61A G66A	< 1e-05 s⁻¹	–	–
A14U A36U G38C G62A	< 1e-05 s⁻¹	–	–
A15U U31G A48U	< 1e-05 s⁻¹	–	–
C11U U31C G35C A36U	< 1e-05 s⁻¹	–	< 1e-05 s⁻¹
A6G A36C G37U G40A C61A U65A	< 1e-05 s⁻¹	–	< 1e-05 s⁻¹
A39U A48U A53C	< 1e-05 s⁻¹	–	–
A39U G43C C70G	< 1e-05 s⁻¹	–	< 1e-05 s⁻¹
G9U G63A	< 1e-05 s⁻¹	< 1e-05 s⁻¹	< 1e-05 s⁻¹
A12U A15C A48G A52U G66A C70G	< 1e-05 s⁻¹	–	–
C11U C68G	0.000314 ± 0.00012 s⁻¹	–	–
G13U U31C G43C	< 1e-05 s⁻¹	< 1e-05 s⁻¹	< 1e-05 s⁻¹
C50U C58A C68U	8.66e-05 ± 2.6e-05 s⁻¹	–	–

Variant	self-cleavage kobs at 640 uM GlcN6P (glucosamine-6-phosphate [1])	self-cleavage kobs at 10000 uM GlcN6P (glucosamine-6-phosphate [2])	self-cleavage kobs at 2500 uM GlcN6P (glucosamine-6-phosphate [3])
C10A G32C C34U	< 1e-05 s⁻¹	–	–
C16U G41A C71A	7.7e-05 ± 2.1e-05 s⁻¹	–	0.000279 ± 7.1e-05 s⁻¹
G29U U30C A52U	< 1e-05 s⁻¹	–	< 1e-05 s⁻¹
U30A G32A G37U U49C A64U	< 1e-05 s⁻¹	–	–
A33C G35A G44U C70U	< 1e-05 s⁻¹	–	–
C10G A36G U45G U49A G66A C71U	< 1e-05 s⁻¹	–	< 1e-05 s⁻¹
G7U A12G C16U	< 1e-05 s⁻¹	–	< 1e-05 s⁻¹
G35C G60A C71U	< 1e-05 s⁻¹	–	–
G35A G43C C68A	< 1e-05 s⁻¹	–	< 1e-05 s⁻¹
C10U C11A G43A C68G C70U	< 1e-05 s⁻¹	–	–
C50G A52G G60U C71U	0.000392 ± 0.00013 s⁻¹	–	6.62e-05 ± 2.9e-05 s⁻¹
G43A G62U C67A	< 1e-05 s⁻¹	–	< 1e-05 s⁻¹
U30G A33G U57C	< 1e-05 s⁻¹	< 1e-05 s⁻¹	< 1e-05 s⁻¹
G7A G51A C58A	< 1e-05 s⁻¹	–	< 1e-05 s⁻¹
A33U G41C G51U U55A	< 1e-05 s⁻¹	< 1e-05 s⁻¹	–
A14C U31G G32A C70G	6.55e-05 ± 1.4e-05 s⁻¹	–	8.05e-05 ± 2e-05 s⁻¹
A12G U47A G62U C67G C68G	0.000122 ± 3.6e-05 s⁻¹	–	–
C8G C10U G38A U65G C68G	4.45e-05 ± 1.9e-05 s⁻¹	–	–
G44C U56C G59U	< 1e-05 s⁻¹	–	< 1e-05 s⁻¹
U30C C34G	< 1e-05 s⁻¹	< 1e-05 s⁻¹	–
A36U G44A G62A C71G	< 1e-05 s⁻¹	–	< 1e-05 s⁻¹
A15C U47G G66U	< 1e-05 s⁻¹	–	–

Variant	self-cleavage kobs at 640 uM GlcN6P (glucosamine-6-phosphate [1])	self-cleavage kobs at 10000 uM GlcN6P (glucosamine-6-phosphate [2])	self-cleavage kobs at 2500 uM GlcN6P (glucosamine-6-phosphate [3])
A6U U45C C71U	< 1e-05 s⁻¹	–	< 1e-05 s⁻¹
U30C G38C A42U	< 1e-05 s⁻¹	–	< 1e-05 s⁻¹
G32U C58A C70G	0.000218 ± 7.9e-05 s⁻¹	–	0.000221 ± 5.9e-05 s⁻¹
G35A G41U U54C	< 1e-05 s⁻¹	–	< 1e-05 s⁻¹
G7A A39G U49C U69A	< 1e-05 s⁻¹	< 1e-05 s⁻¹	< 1e-05 s⁻¹
A12G A48C C68G	< 1e-05 s⁻¹	–	< 1e-05 s⁻¹
C34A G38U A53G	< 1e-05 s⁻¹	–	–
U30C G41C C71U	< 1e-05 s⁻¹	–	–
U30G G43A C67A	9.35e-05 ± 3e-05 s⁻¹	–	0.000157 ± 5.9e-05 s⁻¹
G7U C10G G13C G44A U69G	< 1e-05 s⁻¹	–	–
C11G A39C C67G	< 1e-05 s⁻¹	–	< 1e-05 s⁻¹
G38U U45G G51A	< 1e-05 s⁻¹	–	< 1e-05 s⁻¹
G32U A36U G44U A48G	< 1e-05 s⁻¹	–	< 1e-05 s⁻¹
U47C C67A	0.000623 ± 0.00018 s⁻¹	0.000244 ± 8e-05 s⁻¹	0.000286 ± 9.8e-05 s⁻¹
G7C G9U G62C	< 1e-05 s⁻¹	–	–
C11G A15G C50G G66U	0.000661 ± 0.00032 s⁻¹	–	–
G21U U46G U49C	< 1e-05 s⁻¹	–	< 1e-05 s⁻¹
C8G U55G	< 1e-05 s⁻¹	–	< 1e-05 s⁻¹
G32C A33G G35A C61A	< 1e-05 s⁻¹	–	–
A12C G60C C67U	< 1e-05 s⁻¹	–	–
U2C U31C	0.000805 ± 0.00025 s⁻¹	–	–
G32C G35A A36G	< 1e-05 s⁻¹	–	–

Variant	self-cleavage kobs at 640 uM GlcN6P (glucosamine-6-phosphate [1])	self-cleavage kobs at 10000 uM GlcN6P (glucosamine-6-phosphate [2])	self-cleavage kobs at 2500 uM GlcN6P (glucosamine-6-phosphate [3])
G9U A12C A33G	< 1e-05 s⁻¹	–	< 1e-05 s⁻¹
G9A C10U A42G A53U	< 1e-05 s⁻¹	–	< 1e-05 s⁻¹
A33U G38U	< 1e-05 s⁻¹	< 1e-05 s⁻¹	< 1e-05 s⁻¹
G7A G13C A14G U69G	< 1e-05 s⁻¹	–	< 1e-05 s⁻¹
C10U A36G C58U	< 1e-05 s⁻¹	–	–
G60A C61U C70U	< 1e-05 s⁻¹	–	< 1e-05 s⁻¹
C8G A36G A42U C67A	< 1e-05 s⁻¹	–	< 1e-05 s⁻¹
A15C A64C C71U	< 1e-05 s⁻¹	–	–
U45G U47G C71U	0.000978 ± 0.00031 s⁻¹	–	–
A33G G43U C70G	< 1e-05 s⁻¹	–	–
A12U C16U G63U G66C	< 1e-05 s⁻¹	–	< 1e-05 s⁻¹
A14C G40U U56G U65A C71U	0.000351 ± 6.7e-05 s⁻¹	–	0.00117 ± 0.00023 s⁻¹
C10G C58U G63U	< 1e-05 s⁻¹	–	–
A14C C16G G29U	0.000294 ± 5.1e-05 s⁻¹	–	0.000837 ± 0.00017 s⁻¹
U30C A36C G40U	< 1e-05 s⁻¹	–	< 1e-05 s⁻¹
U30A G43C C58U U69A	< 1e-05 s⁻¹	–	< 1e-05 s⁻¹
C11A A12U U47A	0.000122 ± 2.6e-05 s⁻¹	–	–
G7A G13C G62U	< 1e-05 s⁻¹	–	–
U55G G59A C70A	< 1e-05 s⁻¹	–	< 1e-05 s⁻¹
C34U A42G C58U A64G U65G	< 1e-05 s⁻¹	–	< 1e-05 s⁻¹
C34G A48G C70U	< 1e-05 s⁻¹	–	–
C8U A12G G66U	< 1e-05 s⁻¹	–	–

Variant	self-cleavage kobs at 640 uM GlcN6P (glucosamine-6-phosphate [1])	self-cleavage kobs at 10000 uM GlcN6P (glucosamine-6-phosphate [2])	self-cleavage kobs at 2500 uM GlcN6P (glucosamine-6-phosphate [3])
C11G A42U G51U G62C	< 1e-05 s⁻¹	–	< 1e-05 s⁻¹
G38A G60A	< 1e-05 s⁻¹	–	< 1e-05 s⁻¹
C8A A53U G60U	< 1e-05 s⁻¹	–	< 1e-05 s⁻¹
A15U C16U G51C C58G C61G C67U	0.000417 ± 8.1e-05 s⁻¹	–	–
G29C G32C A52C C68G	8.66e-05 ± 3.9e-05 s⁻¹	–	–
A14C U49G C70G	0.000526 ± 0.00023 s⁻¹	–	–
C8U A33G G38A G59A C70G	5.19e-05 ± 1.9e-05 s⁻¹	–	–
A6G A33G U47A	< 1e-05 s⁻¹	–	–
A6C G9C G41U	< 1e-05 s⁻¹	–	< 1e-05 s⁻¹
G44U U54G C68A	< 1e-05 s⁻¹	–	–
A6U C8A C11U C50G	0.000402 ± 0.00018 s⁻¹	–	0.000125 ± 4.7e-05 s⁻¹
A52U C70G C71A	8.24e-05 ± 2.8e-05 s⁻¹	–	–
A12U C16U A42U	0.000196 ± 4.1e-05 s⁻¹	–	–
G7U G32C C34U U55C	< 1e-05 s⁻¹	–	< 1e-05 s⁻¹
C10G A15C C50A	< 1e-05 s⁻¹	–	–
A6C G41A U55C U65G	< 1e-05 s⁻¹	–	–
G9A C16U C58U	< 1e-05 s⁻¹	–	–
G37U G44C U47C G63A	< 1e-05 s⁻¹	–	< 1e-05 s⁻¹
U45G U65G G66U U69C	0.000332 ± 7.1e-05 s⁻¹	0.00192 ± 0.00028 s⁻¹	0.00052 ± 0.00017 s⁻¹
G32U G41U G60U C68A	< 1e-05 s⁻¹	–	–
C16U U45A C70G	0.000277 ± 6e-05 s⁻¹	–	0.000385 ± 9.2e-05 s⁻¹
C10A A14C C67U C68A	0.0002 ± 7e-05 s⁻¹	–	–

Variant	self-cleavage kobs at 640 uM GlcN6P (glucosamine-6-phosphate [1])	self-cleavage kobs at 10000 uM GlcN6P (glucosamine-6-phosphate [2])	self-cleavage kobs at 2500 uM GlcN6P (glucosamine-6-phosphate [3])
G32A A53G U56G	7.56e-05 ± 2.8e-05 s⁻¹	–	0.000272 ± 8.6e-05 s⁻¹
C16U C61A G63U	< 1e-05 s⁻¹	–	–
G44C C50G G62U	< 1e-05 s⁻¹	–	–
A15U U30A C68A	0.000134 ± 5.1e-05 s⁻¹	–	0.000121 ± 4.8e-05 s⁻¹
A15U C34U G41U C71U	< 1e-05 s⁻¹	–	–
G51U G63C G66U U69A C70A	< 1e-05 s⁻¹	–	–
G7C G29C C67G	< 1e-05 s⁻¹	–	< 1e-05 s⁻¹
G40A G41C A42C C70U	< 1e-05 s⁻¹	–	–
G29A U30G G35A A39U	< 1e-05 s⁻¹	–	< 1e-05 s⁻¹
G7C A42U A53U C67G	< 1e-05 s⁻¹	–	–
C11A G13U C58A G62C	< 1e-05 s⁻¹	–	–
A15G G29U C70G	0.000143 ± 5e-05 s⁻¹	–	9.63e-05 ± 3.6e-05 s⁻¹
G44U A53G U65C	< 1e-05 s⁻¹	–	–
G41U G51C U69C	< 1e-05 s⁻¹	–	< 1e-05 s⁻¹
C11A G41A U49G G63U	< 1e-05 s⁻¹	–	< 1e-05 s⁻¹
U30A G41U A48U	< 1e-05 s⁻¹	–	< 1e-05 s⁻¹
U31C A42G C70U	0.000788 ± 0.00029 s⁻¹	–	–
G32C C70G	0.000253 ± 8.1e-05 s⁻¹	2.34e-05 ± 9.6e-06 s⁻¹	–
G7A C10U C16U U65C	< 1e-05 s⁻¹	–	–
G29C U47C C70U	8.05e-05 ± 1.3e-05 s⁻¹	–	0.000105 ± 2.4e-05 s⁻¹
C8A G13U C58A U65G C67G	< 1e-05 s⁻¹	–	–
A6G A52U G60U	< 1e-05 s⁻¹	–	< 1e-05 s⁻¹
